# T1: DDK/Myc tag peptide
# T1 chain: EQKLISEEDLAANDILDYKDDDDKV
# Legend:
# [1] = target: EPRS purified recombinant (UniProt P07814 1-1512); assay: EMSA
# DDK/Myc tag peptide = target: T1, DDK/Myc tag peptide; assay: EMSA
# Sequence of EPRS purified recombinant (P07814 whole entry): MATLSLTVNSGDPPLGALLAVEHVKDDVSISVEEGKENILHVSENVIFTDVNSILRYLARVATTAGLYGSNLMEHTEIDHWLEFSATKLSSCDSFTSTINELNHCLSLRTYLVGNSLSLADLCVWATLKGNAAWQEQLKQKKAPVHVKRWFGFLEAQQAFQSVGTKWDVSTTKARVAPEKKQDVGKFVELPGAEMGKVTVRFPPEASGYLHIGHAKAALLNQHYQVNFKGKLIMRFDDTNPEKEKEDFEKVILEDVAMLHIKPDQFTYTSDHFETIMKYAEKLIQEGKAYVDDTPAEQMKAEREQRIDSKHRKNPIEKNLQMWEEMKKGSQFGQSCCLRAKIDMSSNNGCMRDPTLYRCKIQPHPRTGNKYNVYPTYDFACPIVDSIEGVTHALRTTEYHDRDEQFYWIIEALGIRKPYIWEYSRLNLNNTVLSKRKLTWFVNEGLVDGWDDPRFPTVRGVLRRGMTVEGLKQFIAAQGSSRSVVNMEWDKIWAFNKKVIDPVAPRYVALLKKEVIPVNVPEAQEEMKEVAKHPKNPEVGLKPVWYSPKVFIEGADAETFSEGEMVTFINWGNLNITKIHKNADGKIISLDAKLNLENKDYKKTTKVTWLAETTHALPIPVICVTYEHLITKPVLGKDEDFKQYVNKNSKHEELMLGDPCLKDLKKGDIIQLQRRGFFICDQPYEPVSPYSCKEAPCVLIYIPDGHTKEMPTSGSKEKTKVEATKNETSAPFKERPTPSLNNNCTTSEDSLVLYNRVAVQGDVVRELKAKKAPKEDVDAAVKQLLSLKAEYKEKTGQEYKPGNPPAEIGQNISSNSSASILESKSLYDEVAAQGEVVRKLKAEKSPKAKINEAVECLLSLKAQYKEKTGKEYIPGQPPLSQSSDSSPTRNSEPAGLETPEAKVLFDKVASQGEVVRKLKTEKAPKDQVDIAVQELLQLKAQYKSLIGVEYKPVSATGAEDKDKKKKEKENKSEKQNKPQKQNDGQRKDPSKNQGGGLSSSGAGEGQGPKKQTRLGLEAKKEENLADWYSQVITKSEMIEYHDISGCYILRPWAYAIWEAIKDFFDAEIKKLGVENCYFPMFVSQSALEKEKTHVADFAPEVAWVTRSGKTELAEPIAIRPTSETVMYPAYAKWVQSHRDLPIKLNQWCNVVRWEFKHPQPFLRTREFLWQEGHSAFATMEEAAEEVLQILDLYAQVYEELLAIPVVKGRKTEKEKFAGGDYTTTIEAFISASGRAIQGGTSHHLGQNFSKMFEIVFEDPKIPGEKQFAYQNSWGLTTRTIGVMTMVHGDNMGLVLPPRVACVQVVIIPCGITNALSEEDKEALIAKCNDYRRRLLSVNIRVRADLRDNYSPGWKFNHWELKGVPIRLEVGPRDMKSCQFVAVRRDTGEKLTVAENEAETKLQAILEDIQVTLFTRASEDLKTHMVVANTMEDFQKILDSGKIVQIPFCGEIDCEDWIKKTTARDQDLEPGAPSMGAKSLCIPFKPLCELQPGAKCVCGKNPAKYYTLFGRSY
binder,measurement,setting,value
AAUCUUAAAACUGUCAAUGACUUUAAUAUCUU (structured_RNA) [F2.2L (TGEV GAIT-like RNA motif)],binding result,[1],binds
same,binding result,DDK/Myc tag peptide,no binding
